From PMC5454376, “Molecular mechanism of Gαi activation by non-GPCR proteins with a Gα-Binding and Activating motif” (Nature Communications, 2017)

B1: Human His-Gαi3 WT [human] / Fluorescein-labelled GIV peptide (residues 1,671–1,701) [modified: 5,6-carboxyfluorescein coupled to the resin-bound peptide after chain elongation; 5,6-carboxyfluorescein coupled to the resin-bound … (parent)
chain 1: MGCTLSAEDKAAVERSKMIDRNLREDGEKAAKEVKLLLLGAGESGKSTIVKQMKIIHEDGYSEDECKQYKVVVYSNTIQSIIAIIRAMGRLKIDFGEAARADDARQLFVLAGSAEEGVMTPELAGVIKRLWRDGGVQACFSRSREYQLNDSASYYLNDLDRISQSNYIPTQQDVLRTRVKTTGIVETHFTFKDLYFKMFDVGGQRSERKKWIHCFEGVTAIIFCVALSDYDLVLAEDEEMNRMHESMKLFDSICNNKWFTETSIILFLNKKDLFEEKIKRSPLTICYPEYTGSNTYEEAAAYIQCQFEDLNRRKDTKEIYTHFTCATDTKNVQFVFDAVTDVIIKNNLKECGLY
chain 2: KTGSPGSEVVTLQQFLEESNKLTSVQIKSSS

Variants of: B1
Assay: fluorescence polarisation
Details: with Fluorescein-labelled GIV peptide (residues 1,671–1,701) [modified: 5,6-carboxyfluorescein coupled to the resin-bound peptide after chain elongation

ratio to parent	Kd	Variant
2.57		chain 1 MGCTLSAEDKAAVERSKMIDRNLREDGEKAAKEVKLLLLGAGESGKSTIVKQMKIIHEDGYSEDECKQYKVVVYSNTIQSIIAIIRAMGRLKIDFGEAARADDARQLFVLAGSAEEGVMTPELAGVIKRLWRDGGVQACFSRSREYQLNDSASYYLNDLDRISQSNYIPTQQDVLRTRVKTTGIVETHFTFKDLYFKMFDVGGQRSERKKWIHCFEGVTAIIFCVALSDYDLVLAEDEEMNRMHESMKLFDSICNNKWATETSIILFLNKKDLFEEKIKRSPLTICYPEYTGSNTYEEAAAYIQCQFEDLNRRKDTKEIYTHFTCATDTKNVQFVFDAVTDVIIKNNLKECGLY [chain 1 F259A]
3.28		chain 1 MGCTLSAEDKAAVERSKMIDRNLREDGEKAAKEVKLLLLGAGESGKSTIVKQMKIIHEDGYSEDECKQYKVVVYSNTIQSIIAIIRAMGRLKIDFGEAARADDARQLFVLAGSAEEGVMTPELAGVIKRLWRDGGVQACFSRSREYQLNDSASYYLNDLDRISQSNYIPTQQDVLRTRVKTTGAVETHFTFKDLYFKMFDVGGQRSERKKWIHCFEGVTAIIFCVALSDYDLVLAEDEEMNRMHESMKLFDSICNNKWFTETSIILFLNKKDLFEEKIKRSPLTICYPEYTGSNTYEEAAAYIQCQFEDLNRRKDTKEIYTHFTCATDTKNVQFVFDAVTDVIIKNNLKECGLY [chain 1 I184A]
1.22		chain 1 MGCTLSAEDKAAVERSKMIDRNLREDGEKAAKEVKALLLGAGESGKSTIVKQMKIIHEDGYSEDECKQYKVVVYSNTIQSIIAIIRAMGRLKIDFGEAARADDARQLFVLAGSAEEGVMTPELAGVIKRLWRDGGVQACFSRSREYQLNDSASYYLNDLDRISQSNYIPTQQDVLRTRVKTTGIVETHFTFKDLYFKMFDVGGQRSERKKWIHCFEGVTAIIFCVALSDYDLVLAEDEEMNRMHESMKLFDSICNNKWFTETSIILFLNKKDLFEEKIKRSPLTICYPEYTGSNTYEEAAAYIQCQFEDLNRRKDTKEIYTHFTCATDTKNVQFVFDAVTDVIIKNNLKECGLY [chain 1 L36A]
0.649	0.377 µM	chain 1 MGCTLSAEDKAAVERSKMIDRNLREDGEKAAKEVKLLLLGARESGKSTIVKQMKIIHEDGYSEDECKQYKVVVYSNTIQSIIAIIRAMGRLKIDFGEAARADDARQLFVLAGSAEEGVMTPELAGVIKRLWRDGGVQACFSRSREYQLNDSASYYLNDLDRISQSNYIPTQQDVLRTRVKTTGIVETHFTFKDLYFKMFDVGGQRSERKKWIHCFEGVTAIIFCVALSDYDLVLAEDEEMNRMHESMKLFDSICNNKWFTETSIILFLNKKDLFEEKIKRSPLTICYPEYTGSNTYEEAAAYIQCQFEDLNRRKDTKEIYTHFTCATDTKNVQFVFDAVTDVIIKNNLKECGLY [chain 1 G42R]
5.3		chain 1 MGCTLSAEDKAAVERSKMIDRNLREDGEKAAKEVKLLLAGAGESGKSTIVKQMKIIHEDGYSEDECKQYKVVVYSNTIQSIIAIIRAMGRLKIDFGEAARADDARQLFVLAGSAEEGVMTPELAGVIKRLWRDGGVQACFSRSREYQLNDSASYYLNDLDRISQSNYIPTQQDVLRTRVKTTGIVETHFTFKDLYFKMFDVGGQRSERKKWIHCFEGVTAIIFCVALSDYDLVLAEDEEMNRMHESMKLFDSICNNKWFTETSIILFLNKKDLFEEKIKRSPLTICYPEYTGSNTYEEAAAYIQCQFEDLNRRKDTKEIYTHFTCATDTKNVQFVFDAVTDVIIKNNLKECGLY [chain 1 L39A]
> 40	> 20 µM	chain 1 MGCTLSAEDKAAVERSKMIDRNLREDGEKAAKEVKLLLLGAGESGKSTIVKQMKIIHEDGYSEDECKQYKVVVYSNTIQSIIAIIRAMGRLKIDFGEAARADDARQLFVLAGSAEEGVMTPELAGVIKRLWRDGGVQACFSRSREYQLNDSASYYLNDLDRISQSNYIPTQQDVLRTRVKTTGIVETHFTFKDLYFKMFDVGGQRSERKKAIHCFEGVTAIIFCVALSDYDLVLAEDEEMNRMHESMKLFDSICNNKWFTETSIILFLNKKDLFEEKIKRSPLTICYPEYTGSNTYEEAAAYIQCQFEDLNRRKDTKEIYTHFTCATDTKNVQFVFDAVTDVIIKNNLKECGLY [chain 1 W211A]
> 20	> 10 µM	chain 1 MGCTLSAEDKAAVERSKMIDRNLREDGEKAAKEVALLLLGAGESGKSTIVKQMKIIHEDGYSEDECKQYKVVVYSNTIQSIIAIIRAMGRLKIDFGEAARADDARQLFVLAGSAEEGVMTPELAGVIKRLWRDGGVQACFSRSREYQLNDSASYYLNDLDRISQSNYIPTQQDVLRTRVKTTGIVETHFTFKDLYFKMFDVGGQRSERKKWIHCFEGVTAIIFCVALSDYDLVLAEDEEMNRMHESMKLFDSICNNKWFTETSIILFLNKKDLFEEKIKRSPLTICYPEYTGSNTYEEAAAYIQCQFEDLNRRKDTKEIYTHFTCATDTKNVQFVFDAVTDVIIKNNLKECGLY [chain 1 K35A]
1.77		chain 1 MGCTLSAEDKAAVERSKMIDRNLREDGEKAAKEVKLLLLGAGESGKSTIVKQMKIIHEDGYSEDECKQYKVVVYSNTIQSIIAIIRAMGRLKIDFGEAARADDARQLFVLAGSAEEGVMTPELAGVIKRLWRDGGVQACFSRSREYQLNDSASYYLNDLDRISQSNYIPTQQDVLRTRVKTTGIVETHFTFKDLYFKMFDVGGQRSERKKWIHCFEGVTAIIFCVALSDYDLVLAEDEEMNRMHESMKLFDSICNNAWFTETSIILFLNKKDLFEEKIKRSPLTICYPEYTGSNTYEEAAAYIQCQFEDLNRRKDTKEIYTHFTCATDTKNVQFVFDAVTDVIIKNNLKECGLY [chain 1 K257A]
0.623		chain 1 MGCTLSAEDKAAVERSKMIDRNLREDGEKAAKEVKLLLLGAGESGKSTIVKQMKIIHEDGYSEDECKQYKVVVYSNTIQSIIAIIRAMGRLKIDFGEAARADDARQLFVLAGSAEEGVMTPELAGVIKRLWRDGGVQACFSRSREYQLNDSASYYLNDLDRISQSNYIPTQQDVLRTRVKTTGIVETHFTFKDLYFKMFDVGGQRSERKKWIHCFEGATAIIFCVALSDYDLVLAEDEEMNRMHESMKLFDSICNNKWFTETSIILFLNKKDLFEEKIKRSPLTICYPEYTGSNTYEEAAAYIQCQFEDLNRRKDTKEIYTHFTCATDTKNVQFVFDAVTDVIIKNNLKECGLY [chain 1 V218A]
> 20	> 10 µM	chain 1 MGCTLSAEDKAAVERSKMIDRNLREDGEKAAKEVKLLLLGAGESGKSTIVKQMKIIHEDGYSEDECKQYKVVVYSNTIQSIIAIIRAMGRLKIDFGEAARADDARQLFVLAGSAEEGVMTPELAGVIKRLWRDGGVQACFSRSREYQLNDSASYYLNDLDRISQSNYIPTQQDVLRTRVKTTGIVETHFTFKDLYFKMFDVGGQRSERKKWIHCAEGVTAIIFCVALSDYDLVLAEDEEMNRMHESMKLFDSICNNKWFTETSIILFLNKKDLFEEKIKRSPLTICYPEYTGSNTYEEAAAYIQCQFEDLNRRKDTKEIYTHFTCATDTKNVQFVFDAVTDVIIKNNLKECGLY [chain 1 F215A]
5.32		chain 1 MGCTLSAEDKAAVERSKMIDRNLREDGEKAAKEVKLLLLGAGESGKSTIVKQMKIIHEDGYSEDECKQYKVVVYSNTIQSIIAIIRAMGRLKIDFGEAARADDARQLFVLAGSAEEGVMTPELAGVIKRLWRDGGVQACFSRSREYQLNDSASYYLNDLDRISQSNYIPTQQDVLRTRVKTTGIVETHFTFKDLYFKMFDVGGQRSERKKWIHCFEGVTAIIFCVALSDYDLVLAEDEEMNRMHESMKLFDDICNNKWFTETSIILFLNKKDLFEEKIKRSPLTICYPEYTGSNTYEEAAAYIQCQFEDLNRRKDTKEIYTHFTCATDTKNVQFVFDAVTDVIIKNNLKECGLY [chain 1 S252D]
0.417		chain 1 MGCTLSAEDKAAVERSKMIDRNLREDGEKAAKEVKLLLLGAGESGKSTIVKQMKIIHEDGYSEDECKQYKVVVYSNTIQSIIAIIRAMGRLKIDFGEAARADDARQLFVLAGSAEEGVMTPELAGVIKRLWRDGGVQACFSRSREYQLNDSASYYLNDLDRISQSNYIPTQQDVLRTRVKTTGIVETHFTFKDLYFKMFDVGGQRSERKKWIHCFEGVTAIIFCVALSDYDLVLAEDEEMNRMHESMKLFDAICNNKWFTETSIILFLNKKDLFEEKIKRSPLTICYPEYTGSNTYEEAAAYIQCQFEDLNRRKDTKEIYTHFTCATDTKNVQFVFDAVTDVIIKNNLKECGLY [chain 1 S252A]
> 40	> 20 µM	chain 1 MGCTLSAEDKAAVERSKMIDRNLREDGEKAAKEVKLLLLGAGESGKSTIVKQMKIIHEDGYSEDECKQYKVVVYSNTIQSIIAIIRAMGRLKIDFGEAARADDARQLFVLAGSAEEGVMTPELAGVIKRLWRDGGVQACFSRSREYQLNDSASYYLNDLDRISQSNYIPTQQDVLRTRVKTTGIVETHFTFKDLYFKMFDVGGQRSERKKWIHCFEGVTAIIFCVALSDYDLVLAEDEEMNRMHESMKLFDSICNEKWFTETSIILFLNKKDLFEEKIKRSPLTICYPEYTGSNTYEEAAAYIQCQFEDLNRRKDTKEIYTHFTCATDTKNVQFVFDAVTDVIIKNNLKECGLY [chain 1 N256E]
2.11		chain 1 MGCTLSAEDKAAVERSKMIDRNLREDGEKAAKEVKLLLLGAGESGKSTIVKQMKIIHEDGYSEDECKQYKVVVYSNTIQSIIAIIRAMGRLKIDFGEAARADDARQLFVLAGSAEEGVMTPELAGVIKRLWRDGGVQACFSRSREYQLNDSASYYLNDLDRISQSNYIPTQQDVLRTRVKTTGIVETHFTFKDLYFKMFDVGGQRSERKKWIHCFEGVTAIIFCVALSDYDLVLAEDEEMNRMHESMKLFDSICNAKWFTETSIILFLNKKDLFEEKIKRSPLTICYPEYTGSNTYEEAAAYIQCQFEDLNRRKDTKEIYTHFTCATDTKNVQFVFDAVTDVIIKNNLKECGLY [chain 1 N256A]
0.822		chain 1 MGCTLSAEDKAAVERSKMIDRNLREDGEKAAKEVKLALLGAGESGKSTIVKQMKIIHEDGYSEDECKQYKVVVYSNTIQSIIAIIRAMGRLKIDFGEAARADDARQLFVLAGSAEEGVMTPELAGVIKRLWRDGGVQACFSRSREYQLNDSASYYLNDLDRISQSNYIPTQQDVLRTRVKTTGIVETHFTFKDLYFKMFDVGGQRSERKKWIHCFEGVTAIIFCVALSDYDLVLAEDEEMNRMHESMKLFDSICNNKWFTETSIILFLNKKDLFEEKIKRSPLTICYPEYTGSNTYEEAAAYIQCQFEDLNRRKDTKEIYTHFTCATDTKNVQFVFDAVTDVIIKNNLKECGLY [chain 1 L37A]
7.58		chain 1 MGCTLSAEDKAAVERSKMIDRNLREDGEKAAKEVKLLLLGAGESGKSTIVKQMKIIHEDGYSEDECKQYKVVVYSNTIQSIIAIIRAMGRLKIDFGEAARADDARQLFVLAGSAEEGVMTPELAGVIKRLWRDGGVQACFSRSREYQLNDSASYYLNDLDRISQSNYIPTQQDVLRTRVKTTGIVETHFTFKDLYFKMFDVGGQRSERKKWIHCFEGVTAIIFCVALSDYDLVLAEDEEMNRMHESMKHFDSICNNKWFTETSIILFLNKKDLFEEKIKRSPLTICYPEYTGSNTYEEAAAYIQCQFEDLNRRKDTKEIYTHFTCATDTKNVQFVFDAVTDVIIKNNLKECGLY [chain 1 L249H]
2.35		chain 1 MGCTLSAEDKAAVERSKMIDRNLREDGEKAAKEVKLLLLGAGESGKSTIVKQMKIIHEDGYSEDECKQYKVVVYSNTIQSIIAIIRAMGRLKIDFGEAARADDARQLFVLAGSAEEGVMTPELAGVIKRLWRDGGVQACFSRSREYQLNDSASYYLNDLDRISQSNYIPTQQDVLRTRVKTTGIVETHFTFKDLYFKMFDVGGQRSERKKWIHCFEGVTAIIFCVALSDYDLVLAEDEEMNRMHESMKVFDSICNNKWFTETSIILFLNKKDLFEEKIKRSPLTICYPEYTGSNTYEEAAAYIQCQFEDLNRRKDTKEIYTHFTCATDTKNVQFVFDAVTDVIIKNNLKECGLY [chain 1 L249V]
